From US20090048161A1
Where no end group is shown, it is not given here. [ ]: non-standard residue; d: D form.

Molecular target: IL-1R on freshly isolated rat thymocytes (rat) (UniProt Q02955)
Test: radioligand binding on freshly isolated rat thymocytes: displacement of 6 nM I^125-API-101.10 by increasing non-radioactive API-101.10 (printed as 'affinity')

[dR][dY][dT][dV][dE][dL][dA] (also: 125I-labelled form used as tracer, site not given here) [API-101.10]
Kd: 1000 nM
